The test has as its target DraIII restriction endonuclease (Deinococcus radiophilus ATCC 27603). Briefly: crystal structure; DraIII incubated 1:1 with an 11-bp phosphorothioate canonical DNA duplex, SEC with 5 mmol/L MgCl2; crystals at 18°C, hanging drop, 0.1 mol/L Tris-Cl, 20% 2-propanol, 5% PEG 8000, pH 8.0; the DNA was not observed in the structure.

In general, stoichiometry N refers to the number of molecules, sites or subunits per partner or assembly. In the case of “DraIII restriction endonuclease (enzyme)”, the stoichiometry N was 2.

For the origin of these results see PMC3996161.
